Among the data in patent publication US20180346912, “METHOD FOR STABILIZING DNA APTAMERS” (TAGCYX BIOTECHNOLOGIES, published 2018) are binding signal values, retold here.

The target of the data set is vWF A1 domain (UniProt P04275 P04275:1277-1453). Kind of data set: competition; EMSA competition vs 32P-ARC1172(wt) (=1.00), PBS, 0.1 mg/mL BSA, 37 C. As to conditions: tags: U-Protein Express BV. On the procedure:
In order to examine each prepared nucleic acid for its binding to vWF A1 domain, competition with ARC1172 reported as an aptamer binding to vWF A1 domain was tested using each variant nucleic acid. In 20 μL of a reaction solution (1× PBS and 0.1 mg/mL BSA). ARC1172 labeled with [γ-³²P]ATP (final concentration: 100 nM), each unlabeled nucleic acid (ARC1172(wt), ARC1172(wt)-iT, ARC1172-F, ARC 1172-F-iT, and ARC1172-G) (final concentration: 100 nM), and vWF A1 domain (100 nM, U-Protein Express BV) were mixed and incubated at 37° C. for 30 minutes. Then, 25% glycerol containing bromophenol blue was added thereto at a final glycerol concentration of 5%. Labeled ARC1172(wt) bound to vWF A1 domain was separated from labeled ARC1172 in a free form by 10% non-denaturing polyacrylamide gel electrophoresis. The gel was dried and visualized using Bio Image Analyzer FLA-7000, and the radioactivity was measured. The gel shift rate, the inhibition rate, and the relative binding rate were calculated in accordance with Example 2.
Background: A gel shift assay detects complexes by their altered migration in electrophoresis.

vWF A1 domain, sequence (P04275 1277-1453, one chain of several): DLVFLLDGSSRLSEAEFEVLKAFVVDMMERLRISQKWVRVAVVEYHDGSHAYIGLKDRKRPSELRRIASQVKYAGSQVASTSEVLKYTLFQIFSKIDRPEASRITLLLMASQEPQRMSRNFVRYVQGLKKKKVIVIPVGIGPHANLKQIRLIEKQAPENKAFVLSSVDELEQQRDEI

Regarding GGCGTGCAGTGCCGAAGGCCGTGCGGTGCCTCCGTCACGCCCGCGAAGCG (ssDNA) [ARC1172-G], under “internal and 3' mini-hairpins”, the binding signal was 1.61.

The molecule GGCGTGCAGTGCCGAAGGCCGTGCGGTGCCTCCGTCACGCC (ssDNA, 3' idT) [ARC1172-F-iT] yielded a binding signal (internal mini-hairpin) of 1.43.

GGCGTGCAGTGCCGAAGGCCGTGCGGTGCCTCCGTCACGCC (ssDNA) [ARC1172-F] registered a binding signal (internal mini-hairpin) of 1.37.

For GGCGTGCAGTGCCTTCGGCCGTGCGGTGCCTCCGTCACGCC (ssDNA, 3' idT) [ARC1172(wt)-iT], the binding signal was found to be 1.12.
